The values below come from IntAct's records for PubMed 31515488.

The chains are these.
B1: Conserved oligomeric Golgi complex subunit 2 (Homo sapiens), Q14746 (parent)
chain: MEKSRMNLPKGPDTLCFDKDEFMKEDFDVDHFVSDCRKRVQLEELRDDLELYYKLLKTAMVELINKDYADFVNLSTNLVGMDKALNQLSVPLGQLREEVLSLRSSVSEGIRAVDERMSKQEDIRKKKMCVLRLIQVIRSVEKIEKILNSQSSKETSALEASSPLLTGQILERIATEFNQLQFHAVQSKGMPLLDKVRPRIAGITAMLQQSLEGLLLEGLQTSDVDIIRHCLRTYATIDKTRDAEALVGQVLVKPYIDEVIIEQFVESHPNGLQVMYNKLLEFVPHHCRLLREVTGGAISSEKGNTVPGYDFLVNSVWPQIVQGLEEKLPSLFNPGNPDAFHEKYTISMDFVRRLERQCGSQASVKRLRAHPAYHSFNKKWNLPVYFQIRFREIAGSLEAALTDVLEDAPAESPYCLLASHRTWSSLRRCWSDEMFLPLLVHRLWRLTLQILARYSVFVNELSLRPISNESPKEIKKPLVTGSKEPSITQGNTEDQGSGPSETKPVVSISRTQLVYVVADLDKLQEQLPELLEIIKPKLEMIGFKNFSSISAALEDSQSSFSACVPSLSSKIIQDLSDSCFGFLKSALEVPRLYRRTNKEVPTTASSYVDSALKPLFQLQSGHKDKLKQAIIQQWLEGTLSESTHKYYETVSDVLNSVKKMEESLKRLKQARKTTPANPVGPSGGMSDDDKIRLQLALDVEYLGEQIQKLGLQASDIKSFSALAELVAAAKDQATAEQP
B2: Sodium channel modifier 1 (Homo sapiens), Q9BWG6 (parent)
chain: MSFKREGDDWSQLNVLKKRRVGDLLASYIPEDEALMLRDGRFACAICPHRPVLDTLAMLTAHRAGKKHLSSLQLFYGKKQPGKERKQNPKHQNELRREETKAEAPLLTQTRLITQSALHRAPHYNSCCRRKYRPEAPGPSVSLSPMPPSEVKLQSGKISREPEPAAGPQAEESATVSAPAPMSPTRRRALDHYLTLRSSGWIPDGRGRWVKDENVEFDSDEEEPPDLPLD
partner: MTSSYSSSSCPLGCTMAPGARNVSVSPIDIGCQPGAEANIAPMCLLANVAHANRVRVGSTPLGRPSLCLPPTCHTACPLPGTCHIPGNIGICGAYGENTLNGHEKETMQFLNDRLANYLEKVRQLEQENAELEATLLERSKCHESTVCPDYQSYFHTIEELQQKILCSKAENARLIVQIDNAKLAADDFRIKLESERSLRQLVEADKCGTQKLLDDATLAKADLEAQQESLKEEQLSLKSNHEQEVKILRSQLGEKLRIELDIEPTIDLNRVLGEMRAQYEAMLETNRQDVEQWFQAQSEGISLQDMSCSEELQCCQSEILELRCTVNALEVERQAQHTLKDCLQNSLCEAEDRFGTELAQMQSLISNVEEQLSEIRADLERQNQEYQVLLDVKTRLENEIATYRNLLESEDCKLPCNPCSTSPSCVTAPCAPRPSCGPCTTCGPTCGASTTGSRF
B3: Notch homolog 2 N-terminal-like protein A (Homo sapiens), Q7Z3S9 (parent)
chain: MCVTYHNGTGYCKCPEGFLGEYCQHRDPCEKNRCQNGGTCVAQAMLGKATCRCASGFTGEDCQYSTSHPCFVSRPCLNGGTCHMLSRDTYECTCQVGFTGKECQWTDACLSHPCANGSTCTTVANQFSCKCLTGFTGQKCETDVNECDIPGHCQHGGTCLNLPGSYQCQCLQGFTGQYCDSLYVPCAPSPCVNGGTCRQTGDFTFECNCLPETVRRGTELWERDREVWNGKEHDEN
partner: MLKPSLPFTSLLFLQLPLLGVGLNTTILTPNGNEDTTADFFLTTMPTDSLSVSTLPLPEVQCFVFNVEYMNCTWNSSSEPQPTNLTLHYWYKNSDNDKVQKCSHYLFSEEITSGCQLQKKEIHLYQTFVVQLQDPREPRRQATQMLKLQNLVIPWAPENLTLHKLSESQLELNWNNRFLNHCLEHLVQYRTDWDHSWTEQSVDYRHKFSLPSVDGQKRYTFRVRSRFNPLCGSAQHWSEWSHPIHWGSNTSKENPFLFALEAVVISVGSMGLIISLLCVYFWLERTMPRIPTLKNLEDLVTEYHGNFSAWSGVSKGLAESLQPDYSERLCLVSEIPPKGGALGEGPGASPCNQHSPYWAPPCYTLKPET
B4: Syntenin-1 (Homo sapiens), O00560 (parent)
chain: MSLYPSLEDLKVDKVIQAQTAFSANPANPAILSEASAPIPHDGNLYPRLYPELSQYMGLSLNEEEIRANVAVVSGAPLQGQLVARPSSINYMVAPVTGNDVGIRRAEIKQGIREVILCKDQDGKIGLRLKSIDNGIFVQLVQANSPASLVGLRFGDQVLQINGENCAGWSSDKAHKVLKQAFGEKITMTIRDRPFERTITMHKDSTGHVGFIFKNGKITSIVKDSSAARNGLLTEHNICEINGQNVIGLKDSQIADILSTSGTVVTITIMPAFIFEHIIKRMAPSIMKSLMDHTIPEV
B5: Isoform 1 of NF-kappa-B inhibitor beta (Homo sapiens), Q15653-1 (parent)
chain: MAGVACLGKAADADEWCDSGLGSLGPDAAAPGGPGLGAELGPGLSWAPLVFGYVTEDGDTALHLAVIHQHEPFLDFLLGFSAGTEYMDLQNDLGQTALHLAAILGETSTVEKLYAAGAGLCVAERRGHTALHLACRVGAHACARALLQPRPRRPREAPDTYLAQGPDRTPDTNHTPVALYPDSDLEKEEEESEEDWKLQLEAENYEGHTPLHVAVIHKDVEMVRLLRDAGADLDKPEPTCGRSPLHLAVEAQAADVLELLLRAGANPAARMYGGRTPLGSAMLRPNPILARLLRAHGAPEPEGEDEKSGPCSSSSDSDSGDEGDEYDDIVVHSSRSQTRLPPTPASKPLPDDPRPV
partner: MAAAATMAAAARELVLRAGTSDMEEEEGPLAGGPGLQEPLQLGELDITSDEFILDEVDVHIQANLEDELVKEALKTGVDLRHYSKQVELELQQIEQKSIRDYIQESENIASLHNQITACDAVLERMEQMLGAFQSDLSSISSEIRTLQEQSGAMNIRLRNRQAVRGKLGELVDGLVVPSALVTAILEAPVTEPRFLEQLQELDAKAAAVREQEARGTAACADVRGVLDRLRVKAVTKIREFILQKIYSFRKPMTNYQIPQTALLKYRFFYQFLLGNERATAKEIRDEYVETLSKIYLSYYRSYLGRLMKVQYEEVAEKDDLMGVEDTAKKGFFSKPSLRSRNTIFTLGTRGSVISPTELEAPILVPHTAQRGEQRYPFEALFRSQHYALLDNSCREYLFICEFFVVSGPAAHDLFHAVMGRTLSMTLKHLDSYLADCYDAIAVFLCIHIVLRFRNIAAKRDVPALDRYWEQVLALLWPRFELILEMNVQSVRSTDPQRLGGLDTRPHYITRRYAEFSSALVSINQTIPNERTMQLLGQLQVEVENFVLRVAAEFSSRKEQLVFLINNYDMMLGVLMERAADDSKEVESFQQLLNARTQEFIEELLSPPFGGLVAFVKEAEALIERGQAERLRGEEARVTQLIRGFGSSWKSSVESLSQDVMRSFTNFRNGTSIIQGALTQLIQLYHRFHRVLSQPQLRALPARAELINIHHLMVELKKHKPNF
B6: Protein FAM167A (Homo sapiens), Q96KS9 (parent)
chain: MSVPQIHVEEVGAEEGAGAAAPPDDHLRSLKALTEKLRLETRRPSYLEWQARLEEHTWPFPRPAAEPQASLEEGERGGQEPLLPLREAGQHPPSARSASQGARPLSTGKLEGFQSIDEAIAWLRKELTEMRLQDQQLARQLMRLRGDINKLKIEHTCRLHRRMLNDATYELEERDELADLFCDSPLASSFSLSTPLKLIGVTKMNINSRRFSLC
partner: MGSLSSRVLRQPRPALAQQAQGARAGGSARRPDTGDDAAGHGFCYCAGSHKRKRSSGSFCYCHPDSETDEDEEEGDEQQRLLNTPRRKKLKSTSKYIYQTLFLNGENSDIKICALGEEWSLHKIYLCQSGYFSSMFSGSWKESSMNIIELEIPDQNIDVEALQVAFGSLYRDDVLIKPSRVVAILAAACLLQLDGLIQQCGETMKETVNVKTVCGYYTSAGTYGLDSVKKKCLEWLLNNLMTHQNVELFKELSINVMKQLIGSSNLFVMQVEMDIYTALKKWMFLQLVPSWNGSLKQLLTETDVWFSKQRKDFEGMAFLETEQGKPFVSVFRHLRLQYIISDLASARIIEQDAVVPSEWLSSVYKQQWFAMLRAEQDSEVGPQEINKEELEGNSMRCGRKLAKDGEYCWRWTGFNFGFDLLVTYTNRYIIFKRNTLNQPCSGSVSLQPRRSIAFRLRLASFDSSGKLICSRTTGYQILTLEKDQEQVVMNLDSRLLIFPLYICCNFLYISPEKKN

Variants of B1 are the subject of one experiment. The conditions noted are these: with mtus2_human MTUS2, Q5JR59.
mtus2_human MTUS2, Q5JR59, sequence (Q5JR59 whole entry): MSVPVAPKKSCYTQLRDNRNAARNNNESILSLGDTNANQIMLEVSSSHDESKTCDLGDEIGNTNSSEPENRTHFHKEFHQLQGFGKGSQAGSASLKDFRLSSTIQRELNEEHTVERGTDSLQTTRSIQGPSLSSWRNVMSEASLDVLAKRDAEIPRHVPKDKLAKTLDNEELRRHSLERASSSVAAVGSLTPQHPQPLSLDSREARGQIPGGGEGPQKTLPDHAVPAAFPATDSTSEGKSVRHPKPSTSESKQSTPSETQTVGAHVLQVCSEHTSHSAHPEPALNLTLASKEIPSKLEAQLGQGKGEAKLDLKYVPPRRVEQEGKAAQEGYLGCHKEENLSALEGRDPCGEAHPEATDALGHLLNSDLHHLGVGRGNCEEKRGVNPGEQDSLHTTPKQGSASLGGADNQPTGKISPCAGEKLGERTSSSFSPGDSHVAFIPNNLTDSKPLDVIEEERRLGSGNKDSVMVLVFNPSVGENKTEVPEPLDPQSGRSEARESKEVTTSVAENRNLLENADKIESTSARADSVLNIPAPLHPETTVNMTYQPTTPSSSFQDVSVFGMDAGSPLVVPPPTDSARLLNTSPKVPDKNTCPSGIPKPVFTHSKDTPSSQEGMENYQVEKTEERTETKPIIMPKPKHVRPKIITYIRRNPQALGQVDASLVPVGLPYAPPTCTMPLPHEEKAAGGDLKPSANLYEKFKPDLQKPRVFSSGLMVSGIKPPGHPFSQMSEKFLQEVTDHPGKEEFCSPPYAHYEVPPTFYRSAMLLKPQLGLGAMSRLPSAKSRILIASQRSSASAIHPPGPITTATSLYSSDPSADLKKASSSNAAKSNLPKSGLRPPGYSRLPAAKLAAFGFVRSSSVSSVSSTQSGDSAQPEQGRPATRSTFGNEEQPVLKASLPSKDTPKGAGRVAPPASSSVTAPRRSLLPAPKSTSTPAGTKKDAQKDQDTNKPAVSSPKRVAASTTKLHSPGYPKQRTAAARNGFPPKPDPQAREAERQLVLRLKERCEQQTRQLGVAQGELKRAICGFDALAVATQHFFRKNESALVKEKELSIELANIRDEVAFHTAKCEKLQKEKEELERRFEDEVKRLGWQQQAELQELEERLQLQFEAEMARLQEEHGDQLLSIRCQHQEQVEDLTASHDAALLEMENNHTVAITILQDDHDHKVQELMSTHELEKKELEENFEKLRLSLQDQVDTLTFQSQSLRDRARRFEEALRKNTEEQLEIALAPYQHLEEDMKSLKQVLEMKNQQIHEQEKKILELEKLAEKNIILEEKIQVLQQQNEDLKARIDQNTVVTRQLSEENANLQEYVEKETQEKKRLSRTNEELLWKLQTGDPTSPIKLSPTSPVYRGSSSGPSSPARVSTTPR
As for V589I, the “effect of a mutation on the interaction” value is given as “with no effect”.

In another experiment the parent is B2. The conditions noted are these: with krt38_human KRT38, O76015.
As to MSFKREGDDWSQLNVLKKRRVGDLLASYIPEDEALMLRDGRFACAICPHRPVLDTLAMLTAHRAGKKHLSSLQLFYGKKQPGKERKQNPKHQNELRREETKAEAPLLTQTRLITQSALHRAPHYNSCCRRKYRPEAPGPSVSLSPMPPSEVKLQSGKISREPEPAAGPQAEESVTVSAPAPMSPTRRRALDHYLTLRSSGWIPDGRGRWVKDENVEFDSDEEEPPDLPLD [A174V], the “effect of a mutation on the interaction” value is “with no effect”.

In another experiment the parent is B3. The conditions noted are these: with il2rg_human IL2RG.
In the case of A115T, the “effect of a mutation on the interaction” value is given as “with no effect”.
Regarding R74Q, the “effect of a mutation on the interaction” value is given as “with no effect”.

A further experiment covers variants of B4. The conditions noted are these: with cryaa_human CRYAA.
On to MSLYPSLEDLKVDKVIQAQTAFSANPANPAILSEASAPIPHDGNLYPRLYPELSQYMGLSLNEEEIRANVAVVSGAPLQGQLVARPSSINYMVAPVTGNDVGIRRAEIKQGIREVILCKDQDGRIGLRLKSIDNGIFVQLVQANSPASLVGLRFGDQVLQINGENCAGWSSDKAHKVLKQAFGEKITMTIRDRPFERTITMHKDSTGHVGFIFKNGKITSIVKDSSAARNGLLTEHNICEINGQNVIGLKDSQIADILSTSGTVVTITIMPAFIFEHIIKRMAPSIMKSLMDHTIPEV [K124R], for which the “effect of a mutation on the interaction” value is on record as “with no effect”.

In the next experiment the parent is B4. The conditions noted are these: with cox41_human COX4I1, P13073.
cox41_human COX4I1, P13073, sequence (P13073 whole entry): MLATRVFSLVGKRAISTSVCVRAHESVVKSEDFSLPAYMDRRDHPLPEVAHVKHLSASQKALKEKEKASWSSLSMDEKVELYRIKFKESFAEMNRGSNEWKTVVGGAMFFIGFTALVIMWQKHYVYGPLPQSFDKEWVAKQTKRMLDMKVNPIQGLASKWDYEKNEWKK
As for MSLYPSLEDLKVDKVIQAQTAFSANPANPAILSEASAPIPHDGNLYPRLYPELSQYMGLSLNEEEIRANVAVVSGAPLQGQLVARPSSINYMVAPVTGNDVGIRRAEIKQGIREVILCKDQDGRIGLRLKSIDNGIFVQLVQANSPASLVGLRFGDQVLQINGENCAGWSSDKAHKVLKQAFGEKITMTIRDRPFERTITMHKDSTGHVGFIFKNGKITSIVKDSSAARNGLLTEHNICEINGQNVIGLKDSQIADILSTSGTVVTITIMPAFIFEHIIKRMAPSIMKSLMDHTIPEV [K124R], the “effect of a mutation on the interaction” value is “with no effect”.

In another experiment the parent is B4. The conditions noted are these: with frih_human FTH1, P02794.
MSLYPSLEDLKVDKVIQAQTAFSANPANPAILSEASAPIPHDGNLYPRLYPELSQYMGLSLNEEEIRANVAVVSGAPLQGQLVARPSSINYMVAPVTGNDVGIRRAEIKQGIREVILCKDQDGRIGLRLKSIDNGIFVQLVQANSPASLVGLRFGDQVLQINGENCAGWSSDKAHKVLKQAFGEKITMTIRDRPFERTITMHKDSTGHVGFIFKNGKITSIVKDSSAARNGLLTEHNICEINGQNVIGLKDSQIADILSTSGTVVTITIMPAFIFEHIIKRMAPSIMKSLMDHTIPEV [K124R]: the “effect of a mutation on the interaction” value is “with no effect”.

A further experiment covers variants of B5. The conditions noted are these: with vps52_human VPS52, Q8N1B4.
For MAGVACLGKAADADEWCDSGLGSLGPDAAAPGGPGLGAELGPGLSWAPLVFGYVTEDGDTALHLAVIHLHEPFLDFLLGFSAGTEYMDLQNDLGQTALHLAAILGETSTVEKLYAAGAGLCVAERRGHTALHLACRVGAHACARALLQPRPRRPREAPDTYLAQGPDRTPDTNHTPVALYPDSDLEKEEEESEEDWKLQLEAENYEGHTPLHVAVIHKDVEMVRLLRDAGADLDKPEPTCGRSPLHLAVEAQAADVLELLLRAGANPAARMYGGRTPLGSAMLRPNPILARLLRAHGAPEPEGEDEKSGPCSSSSDSDSGDEGDEYDDIVVHSSRSQTRLPPTPASKPLPDDPRPV [Q69L], the “effect of a mutation on the interaction” value is given as “with no effect”.

The next experiment covers variants of B6. The conditions noted are these: with gmcl1_human GMCL1, Q96IK5.
On to S99T, for which the “effect of a mutation on the interaction” value is given as “with no effect”.
